From patent publication US20200024330A1

Key:
Assay in all cases: cell-based or functional assay
[1] = biological target: HIV-1 92TH021 envelope glycoprotein (Env) on pseudovirus (HIV-1)
[2] = biological target: HIV-1 92UG024 envelope glycoprotein (Env) on pseudovirus (HIV-1)
[3] = biological target: HIV-1 Env of isolate MGRM-AE-004 (HIV-1)
[4] = biological target: HIV-1 Env of isolate MGRM-AE-005 (HIV-1)
[5] = biological target: HIV-1 Env of isolate MGRM-AE-006 (HIV-1)
[6] = biological target: HIV-1 Env of isolate MGRM-AE-007 (HIV-1)
[7] = biological target: HIV-1 Env of isolate MGRM-AE-008 (HIV-1)
[8] = biological target: HIV-1 Env of isolate MGRM-G-001 (HIV-1)
[9] = biological target: HIV-1 Env of isolate MGRM-G-004 (HIV-1)
[10] = biological target: HIV-1 Env of isolate MGRM-G-006 (HIV-1)
[11] = biological target: HIV-1 Env of isolate MGRM-G-009 (HIV-1)
[12] = biological target: HIV-1 Env of isolate MGRM-G-011 (HIV-1)
[13] = biological target: HIV-1 Env of isolate MGRM-G-013 (HIV-1)
[14] = biological target: HIV-1 Env of isolate MGRM-G-014 (HIV-1)
[15] = biological target: HIV-1 Env of isolate MGRM-G-015 (HIV-1)
[16] = biological target: HIV-1 Env of isolate MGRM-G-016 (HIV-1)
[17] = biological target: HIV-1 Env of isolate MGRM-G-017 (HIV-1)
[18] = biological target: HIV-1 Env of isolate MGRM-G-019 (HIV-1)
[19] = biological target: HIV-1 Env of isolate MGRM-G-027 (HIV-1)
[20] = biological target: HIV-1 MGRM-Chronic-B-008 Env (pseudovirus) (HIV-1)
[21] = biological target: HIV-1 NL43 envelope glycoprotein (Env) on pseudovirus (HIV-1)
[22] = biological target: aMLV envelope (negative control pseudovirus)
[23] = biological target: HIV-1 92BR020 envelope glycoprotein (Env) on pseudovirus (HIV-1)
[24] = biological target: HIV-1 92RW020 envelope glycoprotein (Env) on pseudovirus (HIV-1)

4838_L06 (PGT-121) (antibody)
IC50 (ug/ml), neutralizing activity [1]: > 10 µg/mL | IC50 (ug/ml), neutralizing activity [2]: > 10 µg/mL | neutralization IC50 [3]: > 50 µg/mL | neutralization IC50 [4]: > 50 µg/mL | neutralization IC50 [5]: > 50 µg/mL | neutralization IC50 [6]: > 50 µg/mL | neutralization IC50 [7]: > 50 µg/mL | IC50, pseudovirus neutralization [8]: 0.004 µg/mL | IC50, pseudovirus neutralization [9]: 0.115 µg/mL | IC50, pseudovirus neutralization [10]: > 50 µg/mL | IC50, pseudovirus neutralization [11]: 0.02 µg/mL | IC50, pseudovirus neutralization [12]: 3.17 µg/mL | IC50, pseudovirus neutralization [13]: 3.99 µg/mL | IC50, pseudovirus neutralization [14]: 0.009 µg/mL | IC50, pseudovirus neutralization [15]: > 50 µg/mL | IC50, pseudovirus neutralization [16]: > 50 µg/mL | IC50, pseudovirus neutralization [17]: 0.004 µg/mL | IC50, pseudovirus neutralization [18]: 0.011 µg/mL | IC50, pseudovirus neutralization [19]: 0.124 µg/mL | IC50, pseudovirus neutralization [20]: 0.007 µg/mL | IC50 (ug/ml), neutralizing activity [21]: > 10 µg/mL | IC50, pseudovirus neutralization [22]: > 50 µg/mL

4858_P08 (PGT-123) (antibody)
IC50 (ug/ml), neutralizing activity [23]: 0.013 µg/mL | IC50, pseudovirus neutralization [23]: 0.013 µg/mL | IC80, pseudovirus neutralization [23]: 0.039 µg/mL | IC90 (pseudovirus neutralization) [23]: 0.0741 µg/mL | IC95, pseudovirus neutralization [23]: 0.134 µg/mL | IC50 (ug/ml), neutralizing activity [24]: 0.0038 µg/mL | IC50, pseudovirus neutralization [24]: 0.0038 µg/mL | IC80, pseudovirus neutralization [24]: 0.0106 µg/mL | IC90 (pseudovirus neutralization) [24]: 0.0194 µg/mL | IC95, pseudovirus neutralization [24]: 0.0343 µg/mL | IC50 (ug/ml), neutralizing activity [1]: > 10 µg/mL | IC50, pseudovirus neutralization [1]: > 10 µg/mL | IC80, pseudovirus neutralization [1]: > 10 µg/mL | IC90 (pseudovirus neutralization) [1]: > 10 µg/mL | IC95, pseudovirus neutralization [1]: > 10 µg/mL | IC50 (ug/ml), neutralizing activity [2]: > 10 µg/mL | IC50, pseudovirus neutralization [2]: > 10 µg/mL | IC80, pseudovirus neutralization [2]: > 10 µg/mL | IC90 (pseudovirus neutralization) [2]: > 10 µg/mL | IC95, pseudovirus neutralization [2]: > 10 µg/mL | neutralization IC50 [3]: > 50 µg/mL | neutralization IC50 [4]: > 50 µg/mL | neutralization IC50 [5]: > 50 µg/mL | neutralization IC50 [6]: > 50 µg/mL | neutralization IC50 [7]: > 50 µg/mL | IC50, pseudovirus neutralization [8]: 0.009 µg/mL | IC50, pseudovirus neutralization [9]: 0.181 µg/mL | IC50, pseudovirus neutralization [10]: > 50 µg/mL | IC50, pseudovirus neutralization [11]: 33.5 µg/mL | IC50, pseudovirus neutralization [12]: 14.9 µg/mL | IC50, pseudovirus neutralization [13]: 3.97 µg/mL | IC50, pseudovirus neutralization [14]: 0.005 µg/mL | IC50, pseudovirus neutralization [15]: > 50 µg/mL | IC50, pseudovirus neutralization [16]: > 50 µg/mL | IC50, pseudovirus neutralization [17]: 0.026 µg/mL | IC50, pseudovirus neutralization [18]: 0.008 µg/mL | IC50, pseudovirus neutralization [19]: 0.182 µg/mL | IC50, pseudovirus neutralization [20]: 0.01 µg/mL | IC50 (ug/ml), neutralizing activity [21]: > 10 µg/mL | IC50, pseudovirus neutralization [21]: > 10 µg/mL | IC80, pseudovirus neutralization [21]: > 10 µg/mL | IC90 (pseudovirus neutralization) [21]: > 10 µg/mL | IC95, pseudovirus neutralization [21]: > 10 µg/mL | IC50, pseudovirus neutralization [22]: > 50 µg/mL
